B1: Nb-A1 (nanobody A1, comprising amino acid sequence SEQ ID NO:1) (VHH)
VHH: QVQLVQSGGGLVHPGGSLRLSCAASGIDLSLYRMRWYRQAPGKERDLVALITDDGTSYYEDSVKGRFTITRDNPSNKVFLQMNSLKPEDTAVYYCNAETPLSPVNYWGQGTQVTVS
notes: Llama VHH made in the periplasm of E. coli with a C-terminal hexahistidine tag; For the KD measurement it was chemically biotinylated (NHS-PEO4-biotin); not shown: C-terminal hexahistidine tag, named in words only

How the values were obtained:
[1] = target: mesothelin as expressed on the plasma membrane of human cells (HeLa, OVCAR-3, SK-OV-3, A1847) (human) (UniProt Q13421); assay: flow cytometry on Hela cells, chemically biotinylated mAb K1, detection with PE streptavidin [continued) C]
[2] = target: mesothelin as expressed on the plasma membrane of human cells (HeLa, OVCAR-3, SK-OV-3, A1847) (human) (UniProt Q13421); assay: flow cytometry on HeLa cells, chemically biotinylated antibody, PE-streptavidin, Lineweaver-Burk plot
[3] = target: T1, mesothelin as expressed on the plasma membrane of human cells (HeLa, OVCAR-3, SK-OV-3, A1847) (human, UniProt Q13421 296-598); assay: flow cytometry on Hela cells, chemically biotinylated Nb-A1, detection with PE streptavidin
T1 construct: whole, on cells; also called cellularly expressed mesothelin; cell-surface mesothelin
Protocol: (§1) FIG. 4: Affinity determination of nanobodies for mesothelin as expressed on the plasma membrane of cells. Hela cells were incubated with serial dilutions of in vitro biotinylated anti-mesothelin Nb-A1 (A), Nb-C6 (B) or commercial mAb K1 antibody (•; (C)). Bound antibodies were detected by flow cytometry using PE-conjugated streptavidin. Insets are Lineweaver-Burk plots used to determine the dissociation constant. Error bars represent the standard deviation of experiments performed in triplicate.
(§2) The affinity of Nb-A1 and Nb-C6 for cellularly expressed mesothelin was determined by flow cytometry using HeLa cells for the antigen as described previously; Even-Desrumeaux et al., Mol Biosyst 8(2012), 2385-2394. Briefly, binding to HeLa cells was detected using flow cytometry after incubation with various concentrations of biotinylated nanobodies followed by PE-labeled streptavidin. Apparent KD values were determined by the equation KD=a*Fₘₐₓ in which (a) is the regression line and Fₘₐₓ is the maximum of fluorescence.

[4] = target: T1, mesothelin as expressed on the plasma …; assay: flow cytometry on HeLa cells, chemically biotinylated nanobody, PE-streptavidin, Lineweaver-Burk plot
Protocol: as §1, §2

T1 sequence (Q13421 other isoform, or with tags, fused parts or gaps limits assumed): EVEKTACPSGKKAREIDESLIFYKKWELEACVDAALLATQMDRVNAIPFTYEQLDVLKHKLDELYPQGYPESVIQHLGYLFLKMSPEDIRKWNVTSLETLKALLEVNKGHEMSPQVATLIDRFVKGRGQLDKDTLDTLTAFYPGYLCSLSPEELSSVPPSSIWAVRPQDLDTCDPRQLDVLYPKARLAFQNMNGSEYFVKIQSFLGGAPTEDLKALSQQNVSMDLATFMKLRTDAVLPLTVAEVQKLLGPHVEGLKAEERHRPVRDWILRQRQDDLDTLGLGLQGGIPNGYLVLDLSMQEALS
Sequence of mesothelin as expressed on the plasma membrane of human cells (HeLa, OVCAR-3, SK-OV-3, A1847) (human) (Q13421 other isoform, or with tags, fused parts or gaps limits assumed): as above

| Molecule | EC50 (read off the curve) [1] | Kd [2] | EC50 (read off the curve) [3] | Kd [4] |
| --- | --- | --- | --- | --- |
| anti-mesothelin mouse monoclonal antibody K1 (Santa Cruz Biotechnology) | 2 nM | 2 nM | – | – |
| B1 | – | – | ~20 nM | ~15 nM |

Source: US20180002439A1 (INSTITUT NATIONAL DE LA SANTE ET DE LA RECHERCHE MEDICALE …, published 2018)
